# Data reported in patent publication US20170204187A1, “METHODS OF TREATING AND PREVENTING CANCER DRUG RESISTANCE” (Genentech, Inc., priority 2014, published 2017).
# Test system: LOX-IMVI cells
# Test: Secreted factor rescue screen on LOX-IMVI (FIG. 23)
# Assay type: cell-based
# Excerpt: FIG. 23 A-C.|Vemurafenib resistant and sensitive cell lines can be used to determine and anticipate paths to resistance in patients. LOX-IMVI cells were rescued by FGF1, FGF2, EGF, and HGF in the screen. A, LOX-IMVI VemR cells were re-sensitized to PLX4032 by FGFR inhibition. B, Dual resistant LOX-IMVI VemR/FGFRi (i.e., resistant to vemurafenib and FGFR inhibitor) cells were re-sensitized to PLX4032 by EGFR inhibition. C, Triple resistant LOX-IMVI VemR/FGFRi/Erlotinib cells were re-sensitized to PLX4032 by MET inhibition.
molecule,measurement,value
"EGF: secreted factor (protein, UniProt P01133 23-1207, looked up, Pro-epidermal growth factor) Pro-epidermal growth factor: PQHWSCPEGTLAGNGNSTCVGPAPFLIFSHGNSIFRIDTEGTNYEQLVVDAGVSVIMDFHYNEKRIYWVDLERQLLQRVFLNGSRQERVCNIEKNVSGMAINWINEEVIWSNQQEGIITVTDMKGNNSHILLSALKYPANVAVDPVERFIFWSSEVAGSLYRADLDGVGVKALLETSEKITAVSLDVLDKRLFWIQYNREGSNSLICSCDYDGGSVHISKHPTQHNLFAMSLFGDRIFYSTWKMKTIWIANKHTGKDMVRINLHSSFVPLGELKVVHPLAQPKAEDDTWEPEQKLCKLRKGNCSSTVCGQDLQSHLCMCAEGYALSRDRKYCEDVNECAFWNHGCTLGCKNTPGSYYCTCPVGFVLLPDGKRCHQLVSCPRNVSECSHDCVLTSEGPLCFCPEGSVLERDGKTCSGCSSPDNGGCSQLCVPLSPVSWECDCFPGYDLQLDEKSCAASGPQPFLLFANSQDIRHMHFDGTDYGTLLSQQMGMVYALDHDPVENKIYFAHTALKWIERANMDGSQRERLIEEGVDVPEGLAVDWIGRRFYWTDRGKSLIGRSDLNGKRSKIITKENISQPRGIAVHPMAKRLFWTDTGINPRIESSSLQGLGRLVIASSDLIWPSGITIDFLTDKLYWCDAKQSVIEMANLDGSKRRRLTQNDVGHPFAVAVFEDYVWFSDWAMPSVMRVNKRTGKDRVRLQGSMLKPSSLVVVHPLAKPGADPCLYQNGGCEHICKKRLGTAWCSCREGFMKASDGKTCLALDGHQLLAGGEVDLKNQVTPLDILSKTRVSEDNITESQHMLVAEIMVSDQDDCAPVGCSMYARCISEGEDATCQCLKGFAGDGKLCSDIDECEMGVPVCPPASSKCINTEGGYVCRCSEGYQGDGIHCLDIDECQLGEHSCGENASCTNTEGGYTCMCAGRLSEPGLICPDSTPPPHLREDDHHYSVRNSDSECPLSHDGYCLHDGVCMYIEALDKYACNCVVGYIGERCQYRDLKWWELRHAGHGQQQKVIVVAVCVVVLVMLLLLSLWGAHYYRTQKLLSKNPKNPYEESSRDVRSRRPADTEDGMSSCPQPWFVVIKEHQDLKNGGQPVAGEDGQAADGSMQPTSWRQEPQLCGMGTEQGCWIPVSSDKGSCPQVMERSFHMPSYGTQTLEGGVEKPHSLLSANPLWQQRALDPPHQMELTQ",rescue in the secreted factor screen,rescued
